B1: Formin-binding protein 1 (Homo sapiens), Q96RU3 (parent)
chain: MSWGTELWDQFDNLEKHTQWGIDILEKYIKFVKERTEIELSYAKQLRNLSKKYQPKKNSKEEEEYKYTSCKAFISNLNEMNDYAGQHEVISENMASQIIVDLARYVQELKQERKSNFHDGRKAQQHIETCWKQLESSKRRFERDCKEADRAQQYFEKMDADINVTKADVEKARQQAQIRHQMAEDSKADYSSILQKFNHEQHEYYHTHIPNIFQKIQEMEERRIVRMGESMKTYAEVDRQVIPIIGKCLDGIVKAAESIDQKNDSQLVIEAYKSGFEPPGDIEFEDYTQPMKRTVSDNSLSNSRGEGKPDLKFGGKSKGKLWPFIKKNKLMSLLTSPHQPPPPPPASASPSAVPNGPQSPKQQKEPLSHRFNEFMTSKPKIHCFRSLKRGLSLKLGATPEDFSNLPPEQRRKKLQQKVDELNKEIQKEMDQRDAITKMKDVYLKNPQMGDPASLDHKLAEVSQNIEKLRVETQKFEAWLAEVEGRLPARSEQARRQSGLYDSQNPPTVNNCAQDRESPDGSYTEEQSQESEMKVLATDFDDEFDDEEPLPAIGTCKALYTFEGQNEGTISVVEGETLYVIEEDKGDGWTRIRRNEDEEGYVPTSYVEVCLDKNAKDS
partner: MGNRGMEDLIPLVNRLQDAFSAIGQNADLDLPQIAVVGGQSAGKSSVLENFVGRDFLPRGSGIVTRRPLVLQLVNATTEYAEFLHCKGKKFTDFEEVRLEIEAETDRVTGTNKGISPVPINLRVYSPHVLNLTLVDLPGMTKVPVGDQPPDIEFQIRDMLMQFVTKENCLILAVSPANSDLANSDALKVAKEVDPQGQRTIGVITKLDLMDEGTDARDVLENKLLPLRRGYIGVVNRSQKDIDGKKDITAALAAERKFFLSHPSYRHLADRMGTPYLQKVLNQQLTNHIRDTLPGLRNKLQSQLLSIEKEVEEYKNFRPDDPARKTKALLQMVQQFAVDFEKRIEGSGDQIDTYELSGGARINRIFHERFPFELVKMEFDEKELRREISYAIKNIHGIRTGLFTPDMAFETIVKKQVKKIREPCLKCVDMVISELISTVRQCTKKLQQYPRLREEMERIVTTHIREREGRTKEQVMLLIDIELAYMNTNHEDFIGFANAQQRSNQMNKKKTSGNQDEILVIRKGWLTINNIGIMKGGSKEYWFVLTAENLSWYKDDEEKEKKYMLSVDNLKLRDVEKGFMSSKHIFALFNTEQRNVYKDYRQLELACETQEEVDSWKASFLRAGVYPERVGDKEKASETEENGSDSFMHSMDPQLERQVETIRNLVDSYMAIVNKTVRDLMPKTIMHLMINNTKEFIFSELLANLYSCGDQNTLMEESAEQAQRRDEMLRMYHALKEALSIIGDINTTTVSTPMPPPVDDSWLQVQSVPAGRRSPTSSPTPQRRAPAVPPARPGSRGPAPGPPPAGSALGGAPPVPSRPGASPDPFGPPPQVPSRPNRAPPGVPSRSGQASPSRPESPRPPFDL
B2: Formin-binding protein 1 (Homo sapiens), Q96RU3 (parent)
chain: B1 chain
partner: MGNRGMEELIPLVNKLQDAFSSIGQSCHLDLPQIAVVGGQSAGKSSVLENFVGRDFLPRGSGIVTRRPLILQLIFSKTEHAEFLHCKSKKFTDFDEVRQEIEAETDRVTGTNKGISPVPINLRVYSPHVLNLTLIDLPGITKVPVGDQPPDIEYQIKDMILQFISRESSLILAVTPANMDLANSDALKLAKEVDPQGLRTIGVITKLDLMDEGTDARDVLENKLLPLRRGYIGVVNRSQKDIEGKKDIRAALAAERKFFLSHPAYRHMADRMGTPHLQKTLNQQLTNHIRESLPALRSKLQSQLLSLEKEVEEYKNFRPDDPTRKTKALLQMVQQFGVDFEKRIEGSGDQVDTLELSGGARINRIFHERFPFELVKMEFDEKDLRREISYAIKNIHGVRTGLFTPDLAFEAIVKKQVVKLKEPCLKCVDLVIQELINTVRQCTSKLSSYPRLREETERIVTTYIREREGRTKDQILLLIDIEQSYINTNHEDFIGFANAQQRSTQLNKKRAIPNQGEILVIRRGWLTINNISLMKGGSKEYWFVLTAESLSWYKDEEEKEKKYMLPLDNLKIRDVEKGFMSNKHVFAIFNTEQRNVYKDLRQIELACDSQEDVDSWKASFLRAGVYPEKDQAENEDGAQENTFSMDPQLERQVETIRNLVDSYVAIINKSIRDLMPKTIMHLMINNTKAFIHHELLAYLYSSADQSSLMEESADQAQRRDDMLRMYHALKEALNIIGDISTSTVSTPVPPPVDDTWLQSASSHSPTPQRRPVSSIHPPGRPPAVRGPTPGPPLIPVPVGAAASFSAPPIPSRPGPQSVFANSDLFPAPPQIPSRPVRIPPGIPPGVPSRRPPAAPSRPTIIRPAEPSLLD
B3: Formin-binding protein 1 (Homo sapiens), Q96RU3 (parent)
chain: B1 chain
partner: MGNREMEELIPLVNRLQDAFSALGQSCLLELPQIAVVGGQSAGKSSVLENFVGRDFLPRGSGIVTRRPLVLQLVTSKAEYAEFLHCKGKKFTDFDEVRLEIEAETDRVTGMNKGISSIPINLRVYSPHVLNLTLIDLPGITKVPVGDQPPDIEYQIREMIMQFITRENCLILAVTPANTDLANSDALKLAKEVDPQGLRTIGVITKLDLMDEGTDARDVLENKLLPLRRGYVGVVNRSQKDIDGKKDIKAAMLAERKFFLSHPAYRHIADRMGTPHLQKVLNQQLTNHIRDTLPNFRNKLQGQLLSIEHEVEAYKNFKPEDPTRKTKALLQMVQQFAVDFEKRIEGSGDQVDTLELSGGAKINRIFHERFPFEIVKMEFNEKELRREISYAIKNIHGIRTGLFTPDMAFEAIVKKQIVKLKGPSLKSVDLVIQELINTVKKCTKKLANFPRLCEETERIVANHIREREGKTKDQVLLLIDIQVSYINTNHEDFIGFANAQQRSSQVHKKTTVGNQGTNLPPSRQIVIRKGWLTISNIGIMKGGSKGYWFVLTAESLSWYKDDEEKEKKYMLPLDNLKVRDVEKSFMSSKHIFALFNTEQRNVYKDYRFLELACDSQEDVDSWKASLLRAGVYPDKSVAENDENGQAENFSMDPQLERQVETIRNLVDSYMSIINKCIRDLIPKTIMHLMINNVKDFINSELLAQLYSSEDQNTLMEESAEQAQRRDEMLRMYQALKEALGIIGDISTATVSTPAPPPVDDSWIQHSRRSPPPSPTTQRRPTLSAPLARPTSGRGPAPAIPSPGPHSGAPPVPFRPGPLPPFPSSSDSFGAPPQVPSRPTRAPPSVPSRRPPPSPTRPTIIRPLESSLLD

Variants of: B1
Settings: with dyn1_human DNM1, Q05193

Variant | effect of a mutation on the interaction
P602L | decreasing interaction

Variants of: B2
Settings: with dyn2_human DNM2, P50570

Variant | effect of a mutation on the interaction
P602L | decreasing interaction

Variants of: B3
Settings: with dyn3_human DNM3, Q9UQ16

Variant | effect of a mutation on the interaction
P602L | decreasing interaction
